Usually Kd stands for the concentration at which binding is half-saturated. A word on the koff: it is the first-order rate constant of dissociation. In general, kon refers to the second-order rate constant of association. What is called EC50 is the concentration giving half of the maximal effect.

The chains are these.
B1: BSI-502-007 (bispecific antibody, human IgG1, kappa)
heavy: QVQLVQSGAEVKKPGASVKVSCKASGYTFTTYWMHWVRQAPGQGLEWMGVIDPSDSDTTYNQKFKGRVTMTRDTSTSTVYMELSSLRSEDTAVYYCTRSLDGYYDYWGQGTLVTVSSGGGGSGGGGSGGGGSGGGGSDIQMTQSPSSLSASVGDRVTITCRPTENIYSYLAWYQQKPGKAPKLLIYFARTLAEGVPSRFSGSGSGTDFTLTISSLQPEDFATYYCQHHYGTPWTFGGGTKVEIKGGGGSGGGGSEVQLVESGGGLVQPGGSLRLSCAASGFTFSTYGMSWVRQAPGKGLVWVATINSNGGSTSYPDSVKGRFTISRDNAKNTLYLQMNSLRAEDTAVYYCARFFRFRNAMDYWGQGTLVTVSSASTKGPSVFPLAPSSKSTSGGTAALGCLVKDYFPEPVTVSWNSGALTSGVHTFPAVLQSSGLYSLSSVVTVPSSSLGTQTYICNVNHKPSNTKVDKKVEPKSCDKTHTCPPCPAPEAQGGPSVFLFPPKPKDTLYITREPEVTCVVVDVSHEDPEVKFNWYVDGVEVHNAKTKPREEQYNSTYRVVSVLTVLHQDWLNGKEYKCQVSNKALPAPIEKTISKAKGQPREPQVYTLPPSRDELTKNQVSLTCLVKGFYPSDIAVEWESNGQPENNYKTTPPVLDSDGSFFLYSKLTVDKSRWQQGNVFSCSVMHEALHNHYTQKSLSLSPG
light: DIQMTQSPSSLSASVGDRVTITCRTSENIYSYLAWYQQKPGKAPKFLVYNAKTLAEGVPSRFSGSGSGTDFTLTISSLQPEDFATYYCQHYYGPPTWTFGQGTKVEIKRTVAAPSVFIFPPSDEQLKSGTASVVCLLNNFYPREAKVQWKVDNALQSGNSQESVTEQDSKDSTYSLSSTLTLSKADYEKHKVYACEVTHQGLSSPVTKSFNRGEC
notes: huC2C1A1A1-V15 IgG with an anti-TSLP scFv (VH-VL) at the N-terminus of the heavy chain; AQQ and YTE already stand in the entry
B2: BSI-502-008 (bispecific antibody, human IgG1, kappa)
heavy: DIQMTQSPSSLSASVGDRVTITCRPTENIYSYLAWYQQKPGKAPKLLIYFARTLAEGVPSRFSGSGSGTDFTLTISSLQPEDFATYYCQHHYGTPWTFGGGTKVEIKGGGGSGGGGSGGGGSGGGGSQVQLVQSGAEVKKPGASVKVSCKASGYTFTTYWMHWVRQAPGQGLEWMGVIDPSDSDTTYNQKFKGRVTMTRDTSTSTVYMELSSLRSEDTAVYYCTRSLDGYYDYWGQGTLVTVSSGGGGSGGGGSEVQLVESGGGLVQPGGSLRLSCAASGFTFSTYGMSWVRQAPGKGLVWVATINSNGGSTSYPDSVKGRFTISRDNAKNTLYLQMNSLRAEDTAVYYCARFFRFRNAMDYWGQGTLVTVSSASTKGPSVFPLAPSSKSTSGGTAALGCLVKDYFPEPVTVSWNSGALTSGVHTFPAVLQSSGLYSLSSVVTVPSSSLGTQTYICNVNHKPSNTKVDKKVEPKSCDKTHTCPPCPAPEAQGGPSVFLFPPKPKDTLYITREPEVTCVVVDVSHEDPEVKFNWYVDGVEVHNAKTKPREEQYNSTYRVVSVLTVLHQDWLNGKEYKCQVSNKALPAPIEKTISKAKGQPREPQVYTLPPSRDELTKNQVSLTCLVKGFYPSDIAVEWESNGQPENNYKTTPPVLDSDGSFFLYSKLTVDKSRWQQGNVFSCSVMHEALHNHYTQKSLSLSPG
light: B1 light
notes: huC2C1A1A1-V15 IgG with an anti-TSLP scFv (VL-VH) at the N-terminus of the heavy chain; AQQ and YTE already stand in the entry
B3: BSI-502-005 (bispecific antibody, human IgG1, kappa)
heavy: QVQLVQSGAEVKKPGASVKVSCKASGYTFTTYWMHWVRQAPGQGLEWMGVIDPSDSDTTYNQKFKGRVTMTRDTSTSTVYMELSSLRSEDTAVYYCTRSLDGYYDYWGQGTLVTVSSASTKGPSVFPLAPSSKSTSGGTAALGCLVKDYFPEPVTVSWNSGALTSGVHTFPAVLQSSGLYSLSSVVTVPSSSLGTQTYICNVNHKPSNTKVDKKVEPKSCDKTHTCPPCPAPEAQGGPSVFLFPPKPKDTLYITREPEVTCVVVDVSHEDPEVKFNWYVDGVEVHNAKTKPREEQYNSTYRVVSVLTVLHQDWLNGKEYKCQVSNKALPAPIEKTISKAKGQPREPQVYTLPPSRDELTKNQVSLTCLVKGFYPSDIAVEWESNGQPENNYKTTPPVLDSDGSFFLYSKLTVDKSRWQQGNVFSCSVMHEALHNHYTQKSLSLSPGKGGGGSGGGGSEVQLVESGGGLVQPGGSLRLSCAASGFTFSTYGMSWVRQAPGKGLVWVATINSNGGSTSYPDSVKGRFTISRDNAKNTLYLQMNSLRAEDTAVYYCARFFRFRNAMDYWGQGTLVTVSSGGGGSGGGGSGGGGSGGGGSDIQMTQSPSSLSASVGDRVTITCRTSENIYSYLAWYQQKPGKAPKFLVYNAKTLAEGVPSRFSGSGSGTDFTLTISSLQPEDFATYYCQHYYGPPTWTFGQGTKVEIK
light: DIQMTQSPSSLSASVGDRVTITCRPTENIYSYLAWYQQKPGKAPKLLIYFARTLAEGVPSRFSGSGSGTDFTLTISSLQPEDFATYYCQHHYGTPWTFGGGTKVEIKRTVAAPSVFIFPPSDEQLKSGTASVVCLLNNFYPREAKVQWKVDNALQSGNSQESVTEQDSKDSTYSLSSTLTLSKADYEKHKVYACEVTHQGLSSPVTKSFNRGEC
notes: hu1C5F12E9-V8 IgG with an anti-IL4R scFv (VH-VL) at the C-terminus of the heavy chain; AQQ and YTE already stand in the entry

In one test the target is T1, recombinant human IL4Rα-his (human, UniProt P24394 26-231, limits assumed, biotin-labeled in the capture ELISA).
T1 construct: In-house made; not shown: His tag at the C-terminus
Put plainly: SPR Biacore T200; antibody captured on anti-human IgG CM5 chip, IL4Rα-his as analyte; 1:1 Langmuir fit. In outline: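 Antibodies captured on anti-human IgG CM5 chip (bispecifics at 66.67 nM, controls 10 μg/mL), then serially diluted recombinant human IL4Rα-his (C-terminal His tag) in HBS EP flowed at 30 μL/min. Association and dissociation curves fit to 1:1 Langmuir model.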
As for B1, the Kd was found to be 2.22 nM, the off-rate constant (koff) was determined as 0.000399 s⁻¹ and the association rate constant (kon) amounted to 180000 M⁻¹ s⁻¹.
B2: the Kd was determined as 3.15 nM, the koff worked out at 0.000436 s⁻¹ and the on-rate (kon) amounted to 138000 M⁻¹ s⁻¹.
For B3, the Kd worked out at 2.93 nM, the koff worked out at 0.000161 s⁻¹ and the kon was 54900 M⁻¹ s⁻¹.

The target in the next test is T1, recombinant human IL4Rα-his. In words: dual-binding ELISA: coated human IL4Rα-his, antibody titrated, detection with biotin human TSLP-his and SA-HRP; signal needs both antigens bound. As to the method: For the dual-binding ELISA, 96-well ELISA plates were firstly coated with 100 μL 1 μg/mL human IL4Rα-his protein (IL4Rα of SEQ ID NO: 33 with His tag at C terminus, prepared in-house) in PBS overnight at 4° C. ELISA plates were washed 4 times with wash buffer (PBS+0.05% Tween-20, PBST) and then blocked with 200 μL/well blocking buffer (5% w/v non-fatty milk in PBST) for 2 hours at 37° C. […] ELISA plates were washed again and incubated with SA-HRP (100 μl/well) for 40 minutes at 37° C. After the final wash, 100 μL/well TMB (Innoreagents) was added. The reaction was stopped 15 minutes later at room temperature with 50 μL/well 1M H₂SO₄, and the absorbance was read on a microplate reader using dual wavelength mode with 450 nm for TMB and 630 nm as the reference wavelength. The OD (450-630) values were plotted against antibody concentration. Data was analyzed using Graphpad Prism and EC₅₀ values were reported.
A general note: ELISA stands for enzyme-linked immunosorbent assay.
Turning to B1, the EC50 is 0.0944 nM.
With B2, the EC50 stood at 0.107 nM.
For the molecule B3, the EC50 was 0.0779 nM.

The target of the next test is T2, recombinant human TSLP-his (human, UniProt Q969D9 29-159, biotin-labeled in the ELISAs).
T2 construct: In-house made; not shown: His tag at the C-terminus
In words: SPR Biacore; TSLP-his amine-coupled to CM5 chip, antibody as analyte; 1:1 Langmuir fit. As to the method: Un-reacted moieties on the biosensor surface were blocked with ethanolamine. Then, serially diluted purified bispecific antibodies and the controls (2-fold serial dilution in HBS-EP⁺ buffer starting at 100 nM) were respectively flowed onto the chip at a flow rate of 30 μL/min. The antigen-antibody association kinetics was followed for 4 minutes and the dissociation kinetics was followed for 13 minutes.
(In SPR one partner is held on a chip, and binding of the other changes the refractive index at the surface.)
In the case of B1, the Kd was 0.0084 nM, the koff amounted to 3.87e-06 s⁻¹ and the kon came to 460000 M⁻¹ s⁻¹.
In the case of B2, the Kd stood at 0.00758 nM, the koff was found to be 4.43e-06 s⁻¹ and the kon turned out to be 585000 M⁻¹ s⁻¹.
For B3, in that order: less than 0.0145 nM, less than 1e-05 s⁻¹ and 692000 M⁻¹ s⁻¹.

The values above are taken from patent US20260109758A1 (BIOSION, published 2026).
